Reference: patent publication US7708999B2, “Remedies for arthritis” (Kyowa Hakko Kirin Co., Ltd., priority 2001, dated 2010)

Tests used:
Assay type in all cases: cell-based
[1] = molecular target: T1, FGF-8 (Homo sapiens, UniProt P55075); assay: Inhibition by antibody of FGF-8-promoted growth of rabbit synovial cells; details: FGF-8 100 ng/mL, 0.1, 0.3, 1, 3 or 10 μg/ml tested
T1 construct: purchased R & D
T1 sequence (P55075 23-215 isoform P55075-3 limits assumed): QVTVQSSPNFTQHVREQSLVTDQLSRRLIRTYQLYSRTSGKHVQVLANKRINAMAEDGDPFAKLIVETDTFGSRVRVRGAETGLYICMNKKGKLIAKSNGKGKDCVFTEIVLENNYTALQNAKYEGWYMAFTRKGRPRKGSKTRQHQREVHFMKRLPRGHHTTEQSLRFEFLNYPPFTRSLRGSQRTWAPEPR
Procedure: (§1) Rabbit synovial cells were collected by the method of Hamilton et al. (Hamilton J. A. and Slywka J., J. Immunol. 126, 851-855, 1981). The isolated synovial cells were suspended in RPMI 1640 medium comprising 10 vol % FBS (FBS-comprising RPMI 1640 medium is hereinafter referred to as FBS/RPMI 1640), and 10,000 cells was inoculated at each well of a 96-well culture plate. After 24 hours of the culturing, the culture medium of each well was removed, and 200 μL of 0.2 vol % FBS/RPMI 1640 (non-stimulated group) or 0.2 vol % FBS/RPMI 1640 comprising FGF-8 (1, 10 or 100 ng/mL) was added. When the activity of the anti-FGF-8 neutralizing antibody was examined, 200 μL of 0.2 vol % FBS/RPMI 1640 comprising FGF-8 (100 ng/mL) (0 group) or 0.2 vol % FBS/RPMI 1640 comprising FGF-8 (100 ng/mL) and anti-FGF-8 neutralizing antibody KM1334 (0.1, 0.3, 1, 3 or 10 μg/ml) was added to each well. After 48 hours of the culturing, 9.25 kBq per well of [^3H]thymidine was added. The culturing was further performed for 24 hours, and the radioactivity of [^3H]thymidine incorporated in the cells was measured using a liquid scintillation counter (1205 Beta Plate, manufactured by Perkin Elmer Life Science Japan). Six experiments were performed for each condition, and the mean values and the standard error were calculated.

[2] = molecular target: T1, FGF-8; assay: Inhibition by antibody of FGF-8-promoted growth of human synovial cells; details: FGF-8 500 ng/mL
Procedure: as §1, with “When the activity of the anti-FGF-8 neutralizing antibody was examined, 200 μL of 0.2 vol % FBS/RPMI 1640 comprising FGF-8 (100 ng/mL) (0 group) or 0.2 vol % FBS/RPMI 1640 comprising FGF-8 (100 ng/mL) and anti-FGF-8 neutralizing antibody KM1334 (0.1, 0.3, 1, 3 or 10 μg/ml) was added to each well. After 48 hours of the culturing, 9.25 kBq per well of [^3H]thymidine was added.” left out
The same experiment as in Example 3 was performed using human synovial cells derived from the rheumatoid arthritis patient (procured from Toyobo). […] Six experiments were performed for each condition, and the mean values and the standard error were calculated.

[3] = molecular target: T1, FGF-8; assay: Inhibition by antibody of FGF-8-promoted production of matrix metalloproteinase-3 from rabbit chondrocytes; details: FGF-8 100 ng/mL, 48 hours
Procedure: Rabbit articular chondrocytes were isolated and cultured by the method described in Example 1. After the chondrocytes became confluent, the culture solution was replaced with 0.5 vol % FBS/DMEM, followed by the culturing for 24 hours. The culture solution was removed, and 1 mL of 0.5 vol % FBS/DMEM (non-stimulated group), 0.5 vol % FBS/DMEM comprising FGF-8 (100 ng/mL)(0 group) or 0.5 vol % FBS/DMEM comprising FGF-8 (100 ng/mL) and anti-FGF-8 neutralizing antibody KM1334 (1, 3 or 10 μg/mL) was added, followed by the culturing for 48 hours. After 48 hours, the culture medium was recovered, the matrix metalloproteinase-3 concentration in the culture medium was measured using rabbit matrix metalloproteinase-3 ELISA system (manufactured by Amersham Biosciences). Three experiments were performed for each condition, and the mean values and the standard error were calculated.

B1: KM1334: anti-FGF-8 neutralizing monoclonal antibody produced by hybridoma KM1334 (FERM BP-5451), mouse IgG1 subclass (antibody, V domains shown)
VH: QVQLQQSGAEVARPGASVKLSCKASGYTFTDYYLNWVKQRSGQGLEWIGEIDPGSDSIYYNENLEGRATLTADKSSSTAYMQLNSLTSEDSAVYFCARYGYSRYDVRFVYWGQGTLVTVST
VL: DVLMTQTPLSLPVSLGDQASISCRSSQSLVHSNGRTYLEWYLQKPGQSPKVLIYKVSNRISGVPDRFSGSGSGTDFTLKISRVEAEDLGVYFCFQGSHVPYTFGGGTKLEIK
antibody concentration from which the FGF-8-dependent incorporation of [3H]thymidine was significantly inhibited [1]: ≥ 0.3 µg/mL
antibody concentration from which the FGF-8-dependent incorporation of [3H]thymidine was significantly inhibited [2]: ≥ 1 µg/mL
antibody concentration at which the production of matrix metalloproteinase-3 from the chondrocytes with FGF-8 was significantly inhibited [3]: ≥ 1 µg/mL
percent inhibition of matrix metalloproteinase-3 production ([3]; antibody 1 μg/mL): 72%
percent inhibition of matrix metalloproteinase-3 production ([3]; antibody 3 μg/mL): 74%
percent inhibition of matrix metalloproteinase-3 production ([3]; antibody 10 μg/mL): 100%
